Data reported in US20240294585A1 (MANTRA BIO, published 2024).
Values belong to the binder of their own block, whether it stands above or below them.

How the values were obtained:
[1] = molecular target: T1, Isopeptide(3)_Isopeptide(1)_Isopeptide(2) domains-IGSF8 VLM fusion protein (Homo sapiens (IGSF8 portion)); experiment: Cy3 fluorescence on SDS-PAGE, conjugate incubated with modified EVs
T1 construct: Flag-tagged fusion of three isopeptide domains and IGSF8; also called Tricatcher-1-IGSF8; Tricatcher-1-IGSF8 fusion protein
Protocol: 3 μL 500 mM DTT. Samples are mixed, vortexed briefly, spun and heated to 95° C. for 5 min before loading 15 μL per well of NuPAGE® Bis-Tris precast gel. Gel is run at 125V for 1 hr using 1×2-(N-morpholino)ethanesulfonic acid (MES) buffer, following gel manufacturer recommendation, with the loading dye front permitted to run off the gel in order to better separate high molecular weight bands. Seeblue Plus 2 Pre-stained Standard is used as molecular weight standard to follow the course of the electrophoresis and well as a reference for the determining the apparent molecular weight of the targeting moiety-VLM conjugate, in particular, the 5′-IsoPepTag1-ASO-Tricatcher-1-IGSF8 and 3′-IsoPepTag1-ASO-Tricatcher-1-IGSF8 conjugates.

[2] = molecular target: T2, Isopeptide(1)_Isopeptide(2) domains-IGSF VLM fusion protein (Homo sapiens (IGSF8 portion)); experiment: Capillary electrophoresis-Western blot (Jess), anti-myc, peptide incubated with modified EVs
T2 construct: also called Di; DiCatcher-IGSF8
Protocol: (§1) for a total volume of 50 μL. […] Samples are mixed by repeated pipetting. The microtiter plate is covered, spun at 50×g for 1 min and incubated at RT with shaking on an orbital shaker for 3 hrs. Reaction is terminated by adding 12.5 μL of 5× termination buffer (5% SDS, 300 mM Tris-HCl (pH 6.8)), mixing and transferring to 1.5-mL microfuge tube, and heating the tube to 95° C., 5 min. Samples are analyzed on a combined automated capillary electrophoresis and Western blot system (Jess™ Simple Western system) according to the manufacturer ProteinSimple® (San Jose, CA), using anti-myc or anti-FLAG antibody as a primary antibody followed by a goat anti-mouse secondary antibody-conjugated to horseradish peroxidase for chemiluminescent detection.

[3] = molecular target: T1, Isopeptide(3)_Isopeptide(1)_Isopeptide(2 …); experiment: as above
Protocol: as §1

[4] = molecular target: T3, Isopeptide(2) domain-IGSF8 VLM fusion protein (Homo sapiens (IGSF8 portion)); experiment: as above
T3 construct: also called Iso-2; isopeptide(2)-IGSF8
T3 chain: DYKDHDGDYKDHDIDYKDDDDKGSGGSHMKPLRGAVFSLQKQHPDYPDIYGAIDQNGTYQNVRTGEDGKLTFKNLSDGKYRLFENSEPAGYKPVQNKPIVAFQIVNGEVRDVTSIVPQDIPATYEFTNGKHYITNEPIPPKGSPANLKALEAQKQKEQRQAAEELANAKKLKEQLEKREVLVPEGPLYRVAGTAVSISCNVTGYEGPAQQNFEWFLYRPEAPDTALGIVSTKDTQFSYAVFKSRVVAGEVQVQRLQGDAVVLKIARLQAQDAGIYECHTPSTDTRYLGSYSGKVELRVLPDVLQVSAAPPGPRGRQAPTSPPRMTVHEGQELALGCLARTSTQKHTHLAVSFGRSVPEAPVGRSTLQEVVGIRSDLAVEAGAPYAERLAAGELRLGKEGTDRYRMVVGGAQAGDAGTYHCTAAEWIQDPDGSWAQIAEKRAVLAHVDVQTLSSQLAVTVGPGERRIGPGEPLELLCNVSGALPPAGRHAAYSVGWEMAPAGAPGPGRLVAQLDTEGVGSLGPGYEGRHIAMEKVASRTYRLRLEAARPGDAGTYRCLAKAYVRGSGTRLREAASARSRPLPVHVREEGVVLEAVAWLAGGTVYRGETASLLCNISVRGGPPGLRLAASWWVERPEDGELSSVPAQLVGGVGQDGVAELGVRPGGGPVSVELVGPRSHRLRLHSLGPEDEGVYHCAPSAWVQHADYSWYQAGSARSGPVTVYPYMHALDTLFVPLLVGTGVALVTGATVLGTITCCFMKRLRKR
Protocol: as §1

[5] = molecular target: T3, Isopeptide(2) domain-IGSF8 VLM fusion …; experiment: Capillary electrophoresis-Western blot (Jess), anti-myc, 50 µM peptide, 3 h at RT with modified EVs
Protocol: as §1

[6] = molecular target: T2, Isopeptide(1)_Isopeptide(2) …; experiment: Capillary electrophoresis-Western blot, anti-S-tag, peptide incubated 3 h at RT with modified EVs (FIG. 13)
Protocol: (§2) EVs were harvested and purified from producer cells transfected with each of the indicated recombinant isopeptide domain-containing proteins as described above in Example 11. EVs denoted as “Un” were harvested and purified in parallel from untransfected cells. Two additional GPC3 affinity peptide-Isopeptide Tag fusion peptides, namely to either Isopeptide-1 tag or Isopeptide-3 tag, are tested for the ability form a covalent bond (i.e., isopeptide bond) with the IGSF8 fusion proteins comprising IGSF8 as a VLM and an Isopeptide-2 domain (SEQ ID NO: 200 from expression vector in FIG. 2), Isopeptide-1 and Isopeptide-2 domains (SEQ ID NO: 202 from expression vector in FIG. 3) or Isopeptide-1, Isopeptide-2 and Isopeptide-3 domains (SEQ ID NO: 204 from expression vector in FIG. 4; also called Tricatcher-1-IGSF8 fusion protein), indicated as “Iso-2,” “Di” and “Tri,” respectively, for the Isopeptide domain-VLM status (see FIG. 13). GPC3 affinity peptide (PEPN)-Isopeptide-1 Tag fusion peptide and GPC3 affinity peptide-Isopeptide-3 Tag fusion peptide additionally have an S-peptide epitope tag (S-tag) and V5 epitope tag, respectively; while the IGSF fusion proteins all have a Flag epitope tag. […]

[7] = molecular target: T1, Isopeptide(3)_Isopeptide(1)_Isopeptide(2 …); experiment: as above
Protocol: as §2

[8] = molecular target: T1, Isopeptide(3)_Isopeptide(1)_Isopeptide(2 …); experiment: Capillary electrophoresis-Western blot, anti-V5, peptide incubated 3 h at RT with modified EVs (FIG. 13)
Protocol: as §2

B3: N-IsoPep2Tag-PEPN (peptide)
peptide: KLGDIEFIKVNKSGGGGSGGGGEQKLISEEDLTHVSPNQGGLPS
notes: also called Isopeptide-2 tag-PEPN fusion peptide (tag at N-terminus); C-terminal PEPN + Isopeptide(2) tag
binding result [2]: binds
binding result [3]: binds
binding result [5]: binds

B5: S-tag labeled Isopeptide(1) tag fusion peptide, SEQ ID NO: 238 (peptide)
peptide: AHIVMVDAYKPTKSGGGGSGGGGKETAAAKFERQHMDSTHVSPNQGGLPS
notes: Order is isopeptide-1 tag, linker, S-tag, PEPN; also called C-terminal PEPN + Isopeptide(1) tag
binding result [6]: binds
binding result [7]: binds

B7: V5-epitope tagged Isopeptide(3) tag fusion peptide, SEQ ID NO: 246 (peptide)
peptide: DPIVMIDNDKPITSGGGGSGGGGGKPIPNPLLGLDSTTHVSPNQGGLPS
notes: also called C-terminal PEPN + Isopeptide(3) tag
binding result [8]: binds

The next lines start with the values.

binding result [1]: binds
B1: 3′-IsoPepTag1-ASO (peptide)
peptide: CAHIVMVDAYKPTK
modifications: N-terminal Cys joined by click chemistry to the 3′ end of the antisense oligonucleotide TGC GCT CCT GGA CGT AGC C, which carries Cy3 at its 5′ end
notes: Peptide-oligonucleotide conjugate; also called 3′-IsoPep1Tag-ASO; C-IsoPep1Tag-ASO

binding result [2]: binds
binding result [3]: binds
binding result [4]: binds
B2: C-IsoPep2Tag-PEPN (peptide)
peptide: THVSPNQGGLPSSGGGGSGGGGEQKLISEEDLKLGDIEFIKVNK
notes: also called Isopeptide-2 tag-PEPN fusion peptide (tag at C-terminus); N-terminal PEPN + Isopeptide(2) tag

binding result [1]: binds
B4: 5′-IsoPepTag1-ASO (peptide)
peptide: AHIVMVDAYKPTKC
modifications: C-terminal Cys joined by click chemistry to the 5′ end of the antisense oligonucleotide TGC GCT CCT GGA CGT AGC C, which carries Cy3 at its 3′ end
notes: Peptide-oligonucleotide conjugate; also called 5′-IsoPep1Tag-ASO; Cy3-labeled IsoPep1Tag-ASO conjugate

binding result [8]: binds
B6: V5-epitope tagged Isopeptide(3) tag fusion peptide, SEQ ID NO: 244 (peptide)
peptide: THVSPNQGGLPSSGGGGSGGGGGKPIPNPLLGLDSTDPIVMIDNDKPIT
notes: also called N-terminal PEPN + Isopeptide(3) tag
